Reference: publication PMC3977038 (Nature structural & molecular biology, 2014)

Legend:
IgE-Fc(N265Q,N371Q) [1] = target: T1, IgE-Fc(N265Q,N371Q) (human, UniProt P01854); assay: ITC
T1 chain: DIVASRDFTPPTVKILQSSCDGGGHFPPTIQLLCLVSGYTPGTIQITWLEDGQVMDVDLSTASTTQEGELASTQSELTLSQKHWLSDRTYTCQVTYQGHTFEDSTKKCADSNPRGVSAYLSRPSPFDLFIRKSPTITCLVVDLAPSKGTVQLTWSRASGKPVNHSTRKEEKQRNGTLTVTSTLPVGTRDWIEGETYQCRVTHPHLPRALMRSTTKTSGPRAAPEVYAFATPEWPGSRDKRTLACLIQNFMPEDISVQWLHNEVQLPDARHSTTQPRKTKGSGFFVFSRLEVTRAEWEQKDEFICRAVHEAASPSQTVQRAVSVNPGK

IgE-Fc(N265Q,N371Q) [2] = target: T1, IgE-Fc(N265Q,N371Q); assay: ITC
IgE-Fc(N265Q,N371Q) [3] = target: T1, IgE-Fc(N265Q,N371Q); assay: SPR
IgE-Fc(N265Q,N371Q) [4] = target: T1, IgE-Fc(N265Q,N371Q); assay: stopped-flow fluorescence

dH1 (first site) (IgE-Fc(N265Q,N371Q) [1]): -3.5 ± 0.1 kcal/mol | dH2 (second site) (IgE-Fc(N265Q,N371Q) [1]): -1.3 ± 0.1 kcal/mol | Kd (IgE-Fc(N265Q,N371Q) [2]): 40 ± 20 nM | dH (IgE-Fc(N265Q,N371Q) [2]): -3.5 ± 0.1 kcal/mol | Kd (IgE-Fc(N265Q,N371Q) [3]): 95 nM | kon (IgE-Fc(N265Q,N371Q) [4]): 670000 M⁻¹ s⁻¹
B1: anti-ε-chain Fab (aεFab), anti-human IgE-Fc antibody in human IgG1 Fab format (Fab, V domains shown)
VH: QVQLQQSGPGLVKPSQTLSLTCGISGDSVSSNSAAWNWLRQSPSRGLEWLGRTYYRSKWYNDYAVSMKSRITINPDTSRNQFSLQLNSVTPEDTAVYYCARDGEISYDYYYYGMDVWGRGTLVTVSS
VL: QSVLTQPPSASGTPGQRVTISCSGSSSNIGNNGVNWYQQVPGKPPKLLIYYDDLLPSGVSDRFSGSKSGTSASLAISGLQSEDEADYYCEAWDDSLDGVVFGGGTKLTVL
